# Experimental data: patent US20160297854A1 (Novartis, published 2016)
# T1: human VEGF (human, UniProt P15692 207-395, biotinylated)
# T1 construct: also called hVEGF; hVEGF-biotin
# T1 sequence: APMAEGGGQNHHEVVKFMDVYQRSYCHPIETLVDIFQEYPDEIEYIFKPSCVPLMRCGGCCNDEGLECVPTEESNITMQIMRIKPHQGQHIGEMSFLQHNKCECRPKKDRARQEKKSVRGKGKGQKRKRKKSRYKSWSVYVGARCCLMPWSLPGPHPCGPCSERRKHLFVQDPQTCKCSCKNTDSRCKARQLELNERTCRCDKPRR
# Target: T1, human VEGF
# Experiment: SPR (Biacore), ligand hVEGF-biotin, 25 C
binder,measurement,value
"NVS1j (Fab, Tag on the C-terminus of the light chain of NVS4; The heavy chain number is printed as '[9]215') heavy: EVQLVESGGGLVQPGGSLRLSCTASGFSLTDYYYMTWVRQAPGKGLEWVGFIDPDDDPYYATWAKGRFTISRDNSKNTLYLQMNSLRAEDTAVYYCAGGDHNSGWGLDIWGQGTLVTVSSASTKGPSVFPLAPSSKSTSGGTAALGCLVKDYFPEPVTVSWNSGALTSGVHTFPAVLQSSGLYSLSSVVTVPSSSLGTQTYICNVNHKPSNTKVDKRVEPKSCGS light: not shown",Kd,5.64 pM
same,koff,0.000172 s⁻¹
same,kon,3.05e+07 M⁻¹ s⁻¹
